{"source": "paper PMC6706415", "about": "“Inhibition of amyloid beta toxicity in zebrafish with a chaperone-gold nanoparticle dual strategy” (Nature Communications, 2019)", "biological_target": "T1, amyloid beta 42 monomers (UniProt P05067 672-713)", "T1 construct": "Aβ42, the 42-residue peptide derived from amyloid precursor protein (APP) by proteolysis; HFIP-treated Aβ was considered as Aβm; The peptide fibrillizes during 48 h incubations at 37 °C; also called Aβ42; Aβ; source: bought: Anaspec Inc., purity ≥ 95%; HFIP-treated", "experiment": "zeta potential + dynamic light scattering + TEM + CD; Aβ (100 µM; for TEM the ThT ratio, 50 µM Aβ to 6.25 µM βCas) with βCas or βCas AuNPs (12.5 µM βCas equivalent), 48 h at 37 °C in deionized water", "settings": "both partners purified"}
{"binder": "β casein (natural protein, UniProt P02666 16-224, looked up, β casein (βCas); Free βCas, which forms micelles in water; Probably the milk protein, which is naturally phosphorylated (surmise); also called βCas micelles) RELEELNVPGEIVESLSSSEESITRINKKIEKFQSEEQQQTEDELQDKIHPFAQTQSLVYPFPGPIPNSLPQNIPPLTQTPVVVPPFLQPEVMGVSKVKEAMAPKHKEMPFPKYPVEPFTESQSLTLTDVENLHLPLPLLQSWMHQPHQPLPPTVMFPPQSVLSLSQSKVLPVPQKAVPYPQRDMPIQAFLLYQEPVLGPVRGPFPIIV", "values": [{"measurement": "binding result", "value": "binds"}]}
